Source: patent US6753317
Non-standard residues stand in square brackets, D forms with d. *: point of attachment. des‑NH2‑α‑pyrrolidine‑1‑yl = Dmt (2',6'-dimethyl-L-tyrosine) with the α-amine replaced by pyrrolidine-1-yl, Cc1cc(O)cc(C)c1C[C@@H](C(=O)*)N1CCCC1; des‑NH2‑α‑pyrrole‑1‑yl = replacement of the α-amino group by a pyrrol-1-yl group; NH(1-Adamantyl) = C1C2CC3CC1CC(N*)(C2)C3; Dmt = Cc1cc(O)cc(C)c1C[C@H](N)C(=O)O; NH‑tetrazole‑5‑yl = n1nc(N*)n[nH]1; Tic = O=C(O)[C@@H]1Cc2ccccc2CN1; dTic = O=C(O)[C@H]1Cc2ccccc2CN1; NHtBu = CC(C)(C)N*

B1: H-Dmt-Tic-NH-1-adamantane (peptide)
peptide: H-[Dmt]-[Tic]-{NH(1-Adamantyl)}
SMILES: Cc1cc(O)cc(C)c1C[C@H](N)C(=O)N1Cc2ccccc2C[C@H]1C(=O)NC12CC3CC(CC(C3)C1)C2
B2: H-Dmt-Tic-Ala-NH-tBu (peptide)
peptide: H-[Dmt]-[Tic]-Ala-NHtBu
SMILES: Cc1cc(O)cc(C)c1C[C@H](N)C(=O)N1Cc2ccccc2C[C@H]1C(=O)N[C@@H](C)C(=O)NC(C)(C)C

Target: δ-opioid receptor of the mouse vas deferens (MVD) (mouse), P32300
Sequence (P32300 whole entry, stated change not applied): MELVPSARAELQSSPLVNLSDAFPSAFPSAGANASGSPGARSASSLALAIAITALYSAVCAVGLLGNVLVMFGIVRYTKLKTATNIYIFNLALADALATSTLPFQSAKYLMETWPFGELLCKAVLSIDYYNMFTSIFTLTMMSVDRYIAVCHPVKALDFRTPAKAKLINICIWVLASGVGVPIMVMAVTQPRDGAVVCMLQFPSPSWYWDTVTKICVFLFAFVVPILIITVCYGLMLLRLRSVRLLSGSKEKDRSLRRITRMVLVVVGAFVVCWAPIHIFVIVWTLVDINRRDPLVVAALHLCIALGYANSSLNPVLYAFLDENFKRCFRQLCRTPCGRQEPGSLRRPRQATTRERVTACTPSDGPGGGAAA
Assay: cell-based or functional assay

Binder	MVD ED50 [nM]	MVD Ke [nM]	MVD pA2
H-[Dmt]-[Tic]-NHMe [H-Dmt-Tic-NHMe]	21200	> 10000	–
{N,N‑dimethyl}-[Dmt]-[Tic]-NHMe [N,N(Me)2-Dmt-Tic-NHMe]	–	0.41	9.39
H-[Dmt]-[Tic]-Ala-NH2 [H-Dmt-Tic-Ala-NH2]	–	9	8
{N,N‑dimethyl}-[Dmt]-[Tic]-OH (also: tritium-labelled form used as radioligand) [N,N(Me)2-Dmt-Tic-OH]	–	0.28	9.4
B1	870	> 10000	–
{N,N‑dimethyl}-[Dmt]-[Tic]-{NH(1-Adamantyl)} [N,N(Me)2-Dmt-Tic-NH-1-adamantane]	–	0.87	9.06
H-[Dmt]-[Tic]-Ala-NHMe (SMILES CNC(=O)[C@H](C)NC(=O)[C@@H]1Cc2ccccc2CN1C(=O)[C@@H](N)Cc1c(C)cc(O)cc1C) [H-Dmt-Tic-Ala-NHMe]	1290	–	–
{des‑NH2‑α‑pyrrole‑1‑yl}-[Dmt]-[Tic]-OH [[des-NH2-α-pyrrole-1-yl]-Dmt-Tic-OH]	–	408	6.39
H-[Dmt]-[dTic]-{NH(1-Adamantyl)} [H-Dmt-D-Tic-NH-1-adamantane]	–	> 10000	–
B2	–	0.69	9.16
H-[Dmt]-[Tic]-{NH‑tetrazole‑5‑yl} [H-Dmt-Tic-NH-tetrazole-5-yl]	–	36.3	7.44
H-[Dmt]-[Tic]-Ala-{NH(1-Adamantyl)} [H-Dmt-Tic-Ala-NH-1-adamantane]	–	0.51	9.29
{N,N‑dimethyl}-[Dmt]-[dTic]-{NH(1-Adamantyl)} [N,N(Me)2-Dmt-D-Tic-NH-1-adamantane]	–	128	6.91
H-[Dmt]-[Tic]-Ala-OH [H-Dmt-Tic-Ala-OH]	–	4	8.4
{des‑NH2‑α‑pyrrolidine‑1‑yl}-[Dmt]-[Tic]-OH [[des-NH2-α-pyrrolidine-1-yl]-Dmt-Tic-OH]	–	121	6.9
H-[Dmt]-[Tic]-NH2 [H-Dmt-Tic-NH2]	–	42	7.2
